Earlier results, collected in publication PMC11987431.

Biological target: IL-6 receptor (Rattus norvegicus) (UniProt P22273)
Sequence of UniProt P22273 (P22273 20-364, chain 1 of 2): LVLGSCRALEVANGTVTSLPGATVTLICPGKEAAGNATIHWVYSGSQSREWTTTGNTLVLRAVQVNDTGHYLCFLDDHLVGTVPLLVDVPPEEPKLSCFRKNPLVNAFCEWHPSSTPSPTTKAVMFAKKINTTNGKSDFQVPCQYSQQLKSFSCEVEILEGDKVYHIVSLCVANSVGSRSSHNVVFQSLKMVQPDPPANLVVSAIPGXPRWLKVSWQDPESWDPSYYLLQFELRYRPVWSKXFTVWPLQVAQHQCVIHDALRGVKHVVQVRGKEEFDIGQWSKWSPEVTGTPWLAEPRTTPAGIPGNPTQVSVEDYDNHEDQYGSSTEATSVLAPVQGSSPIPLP
Sequence of UniProt P22273 (P40190 23-618, chain 2 of 2, further chain): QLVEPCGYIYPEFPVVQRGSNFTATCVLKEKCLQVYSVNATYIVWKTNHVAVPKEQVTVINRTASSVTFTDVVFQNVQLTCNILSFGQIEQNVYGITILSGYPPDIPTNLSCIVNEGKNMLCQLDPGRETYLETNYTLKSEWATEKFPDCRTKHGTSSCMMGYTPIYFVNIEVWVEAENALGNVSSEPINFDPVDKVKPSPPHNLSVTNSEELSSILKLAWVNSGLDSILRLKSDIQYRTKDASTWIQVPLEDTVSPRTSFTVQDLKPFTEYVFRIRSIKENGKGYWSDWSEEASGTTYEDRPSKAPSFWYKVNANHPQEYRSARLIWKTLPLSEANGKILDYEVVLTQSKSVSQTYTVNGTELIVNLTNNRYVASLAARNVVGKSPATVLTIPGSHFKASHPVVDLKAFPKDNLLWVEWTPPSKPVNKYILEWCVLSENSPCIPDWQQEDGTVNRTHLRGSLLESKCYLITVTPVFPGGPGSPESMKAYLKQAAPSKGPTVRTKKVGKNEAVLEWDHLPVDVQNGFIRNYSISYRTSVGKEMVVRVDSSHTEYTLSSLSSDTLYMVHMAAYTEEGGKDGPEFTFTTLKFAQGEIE

Sequence of IL-6 (P20607 25-211): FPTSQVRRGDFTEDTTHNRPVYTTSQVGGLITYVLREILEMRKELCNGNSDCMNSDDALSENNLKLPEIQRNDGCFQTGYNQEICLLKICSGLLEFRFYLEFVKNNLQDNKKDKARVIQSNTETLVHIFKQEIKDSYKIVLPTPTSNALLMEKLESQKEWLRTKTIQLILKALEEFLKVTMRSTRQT

Kd: 0.015 nM
Substance: IL-6 (from UniProt P20607)
